# Assay results as given in the supplement of paper PMC12667976.
# ± gives the standard error.
# B1: library; numbered along this chain (parent)
# chain: MATDAALRRLLRLHRTEIAVAVDSAFPLLHALADHDVVPEDKFQETLHLKEKEGCPQAFHALLSWLLTQDSTAILDFWRVLFKDYNLERYGRLQPILDSFPKDVDLSQPRKGRKPPAVPKALVPPPRLPTKRKASEEARAAAPAALTPRGTASPGSQLKAKPPKKPESSAEQQRLPLGNGIQTMSASVQRAVAMSSGDVPGARGAVEGILIQQVFESGGSKKCIQVGGEFYTPSKFEDSGSGKNKARSSSGPKPLVRAKGAQGAAPGGGEARLGQQGSVPAPLALPSDPQLHQKNEDECAVCRDGGELICCDGCPRAFHLACLSPPLREIPSGTWRCSSCLQATVQEVQPRAEEPRPQEPPVETPLPPGLRSAGEEVRGPPGEPLAGMDTTLVYKHLPAPPSAAPLPGLDSSALHPLLCVGPEGQQNLAPGARCGVCGDGTDVLRCTHCAAAFHWRCHFPAGTSRPGTGLRCRSCSGDVTPAPVEGVLAPSPARLAPGPAKDDTASHEPALHRDDLESLLSEHTFDGILQWAIQSMARPAAPFPS
# Variants of: B1
# Assay: AIRE transcriptional activation functional score (insulin promoter-GFP; nonsense median 0, synonymous median 1) (normalised score); higher = higher AIRE activity (more reporter activation)
# Conditions: with insulin promoter-GFP reporter in HEK293
# Experimental: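 Deep mutational scan of full-length human AIRE (codon-optimized cDNA, DT-POPCode NNN libraries over three regions) integrated at a Bxb1 landing pad in HEK293 cells carrying an insulin core promoter-GFP reporter at a Flp-In site. Cells were sorted for the top 10% GFP about 14 days after transfection. Variant frequency log-ratios (select vs non-select, TileSeq) were rescaled so that the nonsense median is 0 and the synonymous median is 1, then averaged over biological replicates.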
row,Variant,AIRE transcriptional activation functional score
1,L146F,0.9 ± 0.14
2,L146W,1.42 ± 0.2
3,P355S,0.93 ± 0.21
4,D4T,-0.494 ± 0.11
5,A145W,2.05 ± 0.14
6,A145H,1.37 ± 0.19
7,E347T,1.26 ± 0.18
8,P143F,1.28 ± 0.05
9,T447S,1.29 ± 0.18
10,T447I,1.4 ± 0.15
11,T447F,0.707 ± 0.19
12,H507Q,0.898 ± 0.13
13,H507N,1.19 ± 0.34
14,P466N,0.444 ± 0.26
15,V393C,1.11 ± 0.028
16,Q276N,1.52 ± 0.29
17,Q276M,1 ± 0.08
18,Q276C,1.26 ± 0.039
19,C55Y,0.622 ± 0.23
20,A33G,0.554 ± 0.5
21,S248K,0.517 ± 0.079
22,R257M,0.588 ± 0.062
23,L320F,1.19 ± 0.046
24,L320G,0.879 ± 0.17

row,Variant,AIRE transcriptional activation functional score
1,G408E,1.05 ± 0.043
2,G408P,0.97 ± 0.31
3,G408N,0.674 ± 0.45
4,A541S,0.717 ± 0.35
5,A541Q,1.05 ± 0.076
6,D526N,0.21 ± 0.049
7,D526K,0.177 ± 0.026
8,H458M,0.387 ± 0.26
9,E270D,1.37 ± 0.18
10,R316K,1.03 ± 0.047
11,R190Q,1.24 ± 0.33
12,A19Y,-2.2 ± 0.58
13,D503Q,0.845 ± 0.22
14,Q157F,1.5 ± 0.2
15,F100N,1.13 ± 0.16
16,S249N,0.548 ± 0.067
17,C475N,0.255 ± 0.099
18,Q182I,-0.398 ± 0.24
19,L323F,1.5 ± 0.33
20,K294F,0.447 ± 0.21
21,P129M,0.564 ± 0.18
22,F453P,0.207 ± 0.28
23,K243L,1.47 ± 0.22
24,L47K,-1.23 ± 0.61

row,Variant,AIRE transcriptional activation functional score
1,P365R,1.28 ± 0.21
2,R127W,0.912 ± 0.12
3,R127I,0.611 ± 0.18
4,R127F,0.897 ± 0.11
5,R272H,0.444 ± 0.15
6,V80E,-0.149 ± 0.14
7,K42A,-0.323 ± 0.43
8,D442I,-0.0637 ± 0.095
9,Q534Y,0.193 ± 0.035
10,Y85K,-1.13 ± 0.22
11,E423R,0.409 ± 0.48
12,P499K,0.747 ± 0.17
13,V377I,1.15 ± 0.11
14,S168Q,0.489 ± 0.33
15,S168A,0.888 ± 0.66
16,V214F,1.01 ± 0.2
17,P266A,1.01 ± 0.23
18,D34V,0.0819 ± 0.32
19,C434M,0.34 ± 0.084
20,V104H,-0.483 ± 0.36
21,D238E,0.685 ± 0.32
22,D238A,1.15 ± 0.37
23,P416F,0.451 ± 0.058
24,P416C,1.46 ± 0.03

row,Variant,AIRE transcriptional activation functional score
1,L106T,0.979 ± 0.18
2,L93M,-0.0479 ± 0.027
3,L93K,-0.329 ± 0.38
4,L93Y,-0.417 ± 0.15
5,L366C,0.406 ± 0.69
6,Q293E,1.33 ± 0.14
7,R174E,0.744 ± 0.072
8,R174P,0.727 ± 0.47
9,R203Q,1.13 ± 0.046
10,H454T,0.0122 ± 0.18
11,H454M,-0.148 ± 0.12
12,P116N,2.06 ± 0.3
13,A321Q,1.11 ± 0.17
14,A482P,1.92 ± 0.39
15,G242T,-0.775 ± 0.4
16,G242F,1.23 ± 0.046
17,E229W,-0.162 ± 0.12
18,S185V,0.26 ± 0.26
19,S185A,0.878 ± 0.34
20,E171K,0.709 ± 0.61
21,E171L,1.59 ± 0.33
22,E171M,2.07 ± 0.032
23,M536V,0.514 ± 0.24
24,M536K,-0.0329 ± 0.17

row,Variant,AIRE transcriptional activation functional score
1,S156G,0.917 ± 0.37
2,P252S,1.03 ± 0.18
3,L255S,0.79 ± 0.25
4,D502T,0.991 ± 0.13
5,V226D,0.724 ± 0.24
6,V226I,0.848 ± 0.29
7,V436M,0.555 ± 0.13
8,S24D,0.577 ± 0.078
9,K111T,0.947 ± 0.58
10,E329S,1.09 ± 0.2
11,E329V,1.1 ± 0.18
12,P430W,1.3 ± 0.025
13,P430V,0.632 ± 0.38
14,I211L,0.428 ± 0.43
15,P407G,1.07 ± 0.45
16,P407I,1.43 ± 0.25
17,S169R,0.711 ± 0.96
18,V199A,0.731 ± 0.43
19,A61G,0.214 ± 0.29
20,G387I,1.59 ± 0.069
21,G387F,1.52 ± 0.076
22,H415D,0.797 ± 0.08
23,D36E,1.34 ± 0.57
24,R8C,0.131 ± 0.12

row,Variant,AIRE transcriptional activation functional score
1,T16Q,-0.475 ± 0.078
2,N295M,-0.37 ± 0.08
3,G227L,0.445 ± 0.48
4,G227C,0.85 ± 0.24
5,G527W,0.875 ± 0.1
6,G527L,0.0948 ± 0.22
7,W335T,1.26 ± 0.33
8,R445E,0.42 ± 0.073
9,R445T,0.578 ± 0.34
10,H48S,-0.318 ± 0.087
11,C322I,0.327 ± 0.14
12,P481G,0.747 ± 0.45
13,K114Q,0.342 ± 0.43
14,C310N,0.714 ± 0.11
15,C310T,0.959 ± 0.44
16,L370A,0.668 ± 0.14
17,L370W,0.504 ± 0.13
18,E17A,0.78 ± 0.58
19,G178V,1.28 ± 0.4
20,G306N,1.18 ± 0.17
21,L409T,1.02 ± 0.11
22,P542N,-0.142 ± 0.32
23,L63Y,-0.421 ± 0.5
24,A193R,0.93 ± 0.27

row,Variant,AIRE transcriptional activation functional score
1,S107E,0.777 ± 0.38
2,F230Q,0.665 ± 0.046
3,F230N,0.425 ± 0.38
4,G467N,0.68 ± 0.09
5,G467T,0.0754 ± 0.27
6,P405Y,1.17 ± 0.34
7,P405L,0.801 ± 0.35
8,P361T,1.12 ± 0.13
9,P361A,1.01 ± 0.21
10,P361V,1.21 ± 0.13
11,Q69R,1.15 ± 0.56
12,G305T,1.35 ± 0.21
13,P254E,0.818 ± 0.2
14,L66G,-0.202 ± 0.45
15,L66E,-0.037 ± 0.99
16,V22G,-0.0564 ± 0.39
17,D23R,-0.0795 ± 0.48
18,S234I,0.96 ± 0.64
19,L49Q,-0.302 ± 0.092
20,L49Y,0.268 ± 0.6
21,A429W,1.2 ± 0.081
22,A429V,1.01 ± 0.15
23,W455K,0.572 ± 0.078
